Strand notation (5' to 3'): a small letter for the sugar, then the base; units joined by * are phosphorothioate-linked, units joined directly phosphodiester-linked; [ ] holds rarer units or linkages, { } end groups; capitals alone tell only the bases. e = 2'-O-(2-methoxyethyl) (MOE); [5mC] = 5-methylcytosine; d = 2'-deoxy (DNA)
Legend:
RANK mRNA = RANK mRNA expression in mouse bone marrow after antisense oligonucleotide treatment and PTH infusion: time course (Table 13); assay type: in vivo; details: then 24 h PTH
Experimental: Female Swiss-Webster mice (5-8 wks old) were fed a low-calcium diet and received daily subcutaneous injections of 30 mg/kg of ISIS 181071 (SEQ ID NO: 356) for 2, 3, 5, 7, 10, 14, or 21 days. At the end of the oligonucleotide treatment period, mice were infused with PTH by subcutaneously implanted mini-pumps at a dose of 1 ug/100 g/6 hr. A group of control mice were dosed with either saline, PTH alone (1 ug/100 g/6 hr) or calcitonin (400 ug) plus PTH (1 ug/100 g/6 hr). Following 24 hours of PTH infusion (total PTH delivery of 4ug/100 g), the mice were sacrificed and measurements were made of serum calcium with the Sigma Diagnostics Calcium Kit (Sigma-Aldrich) and RANK mRNA expression in the proximal tibia (as described in other examples herein). Percent RANK mRNA inhibition is normalized to PTH alone treatment.

RANKL mRNA [1] = assay: RANKL mRNA expression in primary mouse osteoblast cells after PTH treatment: time course (Table 7); assay type: cell-based; details: 10 nM PTH; for RANKL mRNA % control: primary osteoblast cells
Experimental: Primary mouse osteoblasts were prepared from calvaria of neonatal mice purchased from Charles River Laboratories. […] Cells were not passaged. Cells were seeded onto 6-well plates (Falcon-Primaria #353846) at a density of 50,000 cells/well for use in antisense oligonucleotide transfection.
In a further embodiment of this invention, the effect of PTH treatment on the expression of RANKL was determined in primary osteoblast cells isolated from mice skull caps. Primary osteoblastic cells were treated for 24 hours with either saline or the transfection reagent FuGENE 6 (Roche Applied Science, Indianapolis, Ind.). […] The RNA was then harvested and the expression levels of RANKL mRNA were measured by the methods described herein. The data are expressed as percent increase over untreated control cells.

RANKL mRNA [2] = assay: Short-term bone resorption model: RANKL mRNA expression in proximal tibia after PTH infusion (Table 6); assay type: in vivo, mouse; details: mice infused with PTH 1 ug/100 g/6 hr
Description: Probes and primers to mouse RANKL were designed to hybridize to a mouse RANKL sequence, using published sequence information (GenBank accession number AF013170.1, incorporated herein as SEQ ID NO:ll). For mouse RANKL the PCR primers were: • forward primer: […] (SEQ ID NO:12) • reverse primer: […] (SEQ ID NO: 13) and • the PCR probe was: FAM-[…]-TAMRA (SEQ ID NO: 14) where FAM is the fluorescent reporter dye and TAMRA is the quencher dye. For mouse GAPDH the PCR primers were: • forward primer: […](SEQ ID NO:15) • reverse primer: […](SEQ ID NO:16) and the • PCR probe was: 5′ JOE-[…]-TAMRA 3′ (SEQ ID NO: 17) where JOE is the fluorescent reporter dye and TAMRA is the quencher dye.
Parathyroidectomized rats are a well-established, short-term model of bone resorption and are useful in the investigation of antiresorptive agents. However, it is difficult to surgically remove only the parathyroid gland of rodents, and the inadvertent removal of the adjacent thyroid gland often has effects on thyroid hormone levels that introduce into the experiment an undesirable level of variability. Continuous infusion of parathyroid hormone (PTH) into intact, young (6-9 weeks old) mice reproduces the short-term bone resorption activity seen in parathyroidectomized rodents and is thus a useful, non-invasive model for the study of antiresorptive agents. The PTH infusion activates bone osteoclasts and causes them to degrade bone matrix, with a resulting rise in serum calcium. In accordance with the present invention, a short-term mouse model of bone resorption was developed and used to evaluate the effects of PTH infusion on serum calcium concentration and RANKL mRNA levels.
Female, Swiss-Webster mice (5-8 weeks old) were placed on a low calcium diet and implanted with mini-pumps delivering PTH continuously. The pumps were calibrated to deliver 1 ug PTH per 100 g bodyweight per 6 hour time period (1 ug/100 g/6 hr). […] The data are expressed as percent increase relative to no PTH treatment.

[3] = Serum calcium concentration 24 hours after PTH infusion in mice treated with RANKL antisense oligonucleotides (Table 10); assay type: in vivo, mouse; details: no oligonucleotide treatment, PTH 1 ug/100 g/6 hr 24 h, calcitonin 400 ng

**Q.** Which “RANK mRNA % inhibition (normalized to PTH) Bone Marrow” value (RANK mRNA; 30 mg/kg daily sc for 2 days) does the source give for “TCCTCGAGAGGTCTCCTTGC (antisense eT*e[5mC]*e[5mC]*eT*e[5mC]*dG*dA*dG*dA*dG*dG*dT*d[5mC]*dT*d[5mC]*e[5mC]*eT*eT*eG*e[5mC]) [ISIS 181071, 2′-MOE gapmer antisense oligonucleotide targeted to mouse RANK]” here?
**A.** 0%

**Q.** And the “RANK mRNA % inhibition (normalized to PTH) Bone Marrow” value (RANK mRNA; 30 mg/kg daily sc for 3 days)?
**A.** 35%

**Q.** What about the “RANK mRNA % inhibition (normalized to PTH) Bone Marrow” value (RANK mRNA; 30 mg/kg daily sc for 5 days) of the same molecule?
**A.** 32%

**Q.** What about the “RANK mRNA % inhibition (normalized to PTH) Bone Marrow” value (RANK mRNA; 30 mg/kg daily sc for 7 days) of the same molecule?
**A.** 44%

**Q.** And the “RANK mRNA % inhibition (normalized to PTH) Bone Marrow” value (RANK mRNA; 30 mg/kg daily sc for 10 days)?
**A.** 18%

**Q.** What about the “RANK mRNA % inhibition (normalized to PTH) Bone Marrow” value (RANK mRNA; 30 mg/kg daily sc for 14 days) of the same molecule?
**A.** 36%

**Q.** And the “RANK mRNA % inhibition (normalized to PTH) Bone Marrow” value (RANK mRNA; 30 mg/kg daily sc for 21 days)?
**A.** 8%

B1: parathyroid hormone (peptide, UniProt P01270 32-115, looked up)
Parathyroid hormone: SVSEIQLMHNLGKHLNSMERVEWLRKKLQDVHNFVALGAPLAPRDAGSQRPRKKEDNVLVESHEKSLGEADKADVNVLTKAKSQ
notes: parathyroid hormone infused to induce bone resorption in the mouse model
**Q.** For B1, which “RANKL mRNA % control” value (RANKL mRNA [1]; 0.5 hours, FuGENE 6 treatment) is on record?
**A.** 185 % control

**Q.** And the “RANKL mRNA % control” value (RANKL mRNA [1]; 0.5 hours, saline treatment)?
**A.** 168 % control

**Q.** And the “RANKL mRNA % control” value (RANKL mRNA [1]; 1 hour, FuGENE 6 treatment)?
**A.** 750 % control

**Q.** And the “RANKL mRNA % control” value (RANKL mRNA [1]; 1 hour, saline treatment)?
**A.** 700 % control

**Q.** And the “RANKL mRNA % control” value (RANKL mRNA [1]; 2 hours, FuGENE 6 treatment)?
**A.** 1275 % control

**Q.** What about the “RANKL mRNA % control” value (RANKL mRNA [1]; 2 hours, saline treatment) of the same molecule?
**A.** 908 % control

**Q.** What about the “RANKL mRNA % control” value (RANKL mRNA [1]; 4 hours, FuGENE 6 treatment) of the same molecule?
**A.** 467 % control

**Q.** And the “RANKL mRNA % control” value (RANKL mRNA [1]; 4 hours, saline treatment)?
**A.** 383 % control

**Q.** What about the “RANKL mRNA % control” value (RANKL mRNA [1]; 6 hours, FuGENE 6 treatment) of the same molecule?
**A.** 340 % control

**Q.** And the “RANKL mRNA % control” value (RANKL mRNA [1]; 6 hours, saline treatment)?
**A.** 326 % control

**Q.** What about the “RANKL mRNA expression in response to PTH” value (RANKL mRNA [1]; primary mouse osteoblast cells, in the presence of saline or FuGENE 6) of the same molecule?
**A.** upregulated in response to PTH

**Q.** What about the “RANKL mRNA % control” value (RANKL mRNA [2]; 12 hours) of the same molecule?
**A.** 242 % control

**Q.** What about the “RANKL mRNA % control” value (RANKL mRNA [2]; 18 hours) of the same molecule?
**A.** 117 % control

**Q.** And the “RANKL mRNA % control” value (RANKL mRNA [2]; 24 hours (4 ug/100 g))?
**A.** 205 % control

**Q.** And the “serum calcium” value ([3]; control groups under ISIS 180814 columns)?
**A.** 22 mg/dL

**Q.** What about the “serum calcium” value ([3]; control groups under ISIS 180819 columns) of the same molecule?
**A.** 22 mg/dL
